# Results: IntAct's records for PubMed 31515488
# B1: Keratin, type I cytoskeletal 40 (Homo sapiens), Q6A162 (parent)
# chain: MTSDCSSTHCSPESCGTASGCAPASSCSVETACLPGTCATSRCQTPSFLSRSRGLTGCLLPCYFTGSCNSPCLVGNCAWCEDGVFTSNEKETMQFLNDRLASYLEKVRSLEETNAELESRIQEQCEQDIPMVCPDYQRYFNTIEDLQQKILCTKAENSRLAVQLDNCKLATDDFKSKYESELSLRQLLEADISSLHGILEELTLCKSDLEAHVESLKEDLLCLKKNHEEEVNLLREQLGDRLSVELDTAPTLDLNRVLDEMRCQCETVLANNRREAEEWLAVQTEELNQQQLSSAEQLQGCQMEILELKRTASALEIELQAQQSLTESLECTVAETEAQYSSQLAQIQCLIDNLENQLAEIRCDLERQNQEYQVLLDVKARLEGEINTYWGLLDSEDSRLSCSPCSTTCTSSNTCEPCSAYVICTVENCCL
# B2: EF-hand domain-containing family member C2 (Homo sapiens), Q5JST6 (parent)
# chain: MALPLLPGNSFNRNVGKEKFHKSQHWGFCNNVMMLVSDEKPGIGGEPLLGQKIKPKCSIYPKGDGSDVPSWVAFDKQVLSFDAYLEEEVLDKSQTNYRIRYYKIYFYPEDDTIQVNEPEVKNSGLLQGTSIRRHRITLPPPDEDQFYTVYHFNVGTEVVFYGRTFKIYDCDAFTRNFLRKIGVKVNPPVQCPEDPYMKIRREVVEHVEPLRPYESLDTLKQFLQYHGKILCFFCLWDDSVSMFGDRRELILHYFLCDDTIEIKELLPHSSGRDALKMFLRRSKLPKNCPPRVYQPGQITDRAVLNSYGDFIKNQADGYLFDRYKLGKVDQEFYKDSDLSLGVTINVWGRKVLLYDCDEFTKSYYKSKYGIENFTSVSCKPPSPPPKIERKFPPYNGFGSEEDSLRNCIDLKPTPHRRNFKKFMEKDSYGSKSNILRFFAKLVTDKCVDLDRMFVISYYLGDDTISVFEPIERNSGIAGGMFLKRSRVKKPGQEVFKSELSEYIKAEELYIGVTVNVNGYLFRLLNADEYTLNYMEQNTDKYPFSNLKLALQKLKQEEGKSRELKQVFKAADSKHTNMVDYNTFRDILMSLTVGNLAEQEFVTIARHYRVPEGTCSDMDFLIALAHEKFKKNMFENFDTFIYSCVYEDREKKNVLPTKDIKRLCKSSRLPLSDDLLESLLSRFEDSEKQIDYKSFFSALNWRKNPVPELQPASYLKERCEDVWLGMPSPIPAKYIDYWTFLKDAFGLEEE
# B3: Tuftelin-interacting protein 11 (Homo sapiens), Q9UBB9 (parent)
# chain: MSLSHLYRDGEGRIDDDDDERENFEITDWDLQNEFNPNRQRHWQTKEEATYGVWAERDSDDERPSFGGKRARDYSAPVNFISAGLKKGAAEEAELEDSDDEEKPVKQDDFPKDFGPRKLKTGGNFKPSQKGFAGGTKSFMDFGSWERHTKGIGQKLLQKMGYVPGRGLGKNAQGIINPIEAKQRKGKGAVGAYGSERTTQSMQDFPVVDSEEEAEEEFQKELSQWRKDPSGSKKKPKYSYKTVEELKAKGRISKKLTAPQKELSQVKVIDMTGREQKVYYSYSQISHKHNVPDDGLPLQSQQLPQSGKEAKAPGFALPELEHNLQLLIDLTEQEIIQNDRQLQYERDMVVNLFHELEKMTEVLDHEERVISNLSKVLEMVEECERRMQPDCSNPLTLDECARIFETLQDKYYEEYRMSDRVDLAVAIVYPLMKEYFKEWDPLKDCTYGTEIISKWKSLLENDQLLSHGGQDLSADAFHRLIWEVWMPFVRNIVTQWQPRNCDPMVDFLDSWVHIIPVWILDNILDQLIFPKLQKEVENWNPLTDTVPIHSWIHPWLPLMQARLEPLYSPIRSKLSSALQKWHPSDSSAKLILQPWKDVFTPGSWEAFMVKNIVPKLGMCLGELVINPHQQHMDAFYWVIDWEGMISVSSLVGLLEKHFFPKWLQVLCSWLSNSPNYEEITKWYLGWKSMFSDQVLAHPSVKDKFNEALDIMNRAVSSNVGAYMQPGARENIAYLTHTERRKDFQYEAMQERREAENMAQRGIGVAASSVPMNFKDLIETKAEEHNIVFMPVIGKRHEGKQLYTFGRIVIYIDRGVVFVQGEKTWVPTSLQSLIDMAK
# partner: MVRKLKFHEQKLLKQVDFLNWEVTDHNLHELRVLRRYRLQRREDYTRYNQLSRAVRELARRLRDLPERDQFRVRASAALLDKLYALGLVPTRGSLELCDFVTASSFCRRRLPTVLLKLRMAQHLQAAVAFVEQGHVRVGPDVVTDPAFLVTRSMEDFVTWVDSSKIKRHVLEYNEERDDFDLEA
# B4: Zinc finger and SCAN domain-containing protein 9 (Homo sapiens), O15535 (parent)
# chain: MNTNSKEVLSLGVQVPEAWEELLTMKVEAKSHLQWQESRLKRSNPLAREIFRRHFRQLCYQETPGPREALTRLQELCYQWLRPHVSTKEQILDLLVLEQFLSILPKELQGWVREHCPESGEEAVILLEDLERELDEPQHEMVAHRHRQEVLCKEMVPLAEQTPLTLQSQPKEPQLTCDSAQKCHSIGETDEVTKTEDRELVLRKDCPKIVEPHGKMFNEQTWEVSQQDPSHGEVGEHKDRIERQWGNLLGEGQHKCDECGKSFTQSSGLIRHQRIHTGERPYECNECGKAFSRSSGLFNHRGIHNIQKRYHCKECGKVFSQSAGLIQHQRIHKGEKPYQCSQCSKSYSRRSFLIEHQRSHTGERPHQCIECGKSFNRHCNLIRHQKIHTVAELV
# B5: SR-related and CTD-associated factor 8 (Homo sapiens), Q9UPN6 (parent)
# chain: MEAVKTFNSELYSLNDYKPPISKAKMTQITKAAIKAIKFYKHVVQSVEKFIQKCKPEYKVPGLYVIDSIVRQSRHQFGQEKDVFAPRFSNNIISTFQNLYRCPGDDKSKIVRVLNLWQKNNVFKSEIIQPLLDMAAGIPPPVVTPVLASTTTAMSNTPGTPVTPVTPANVVQGLPDPWVSQITNTDTLAAVAQILQSPQGQQLQQLIQTLQIQQQKPQPSILQALDAGLVVQLQALTAQLTAAAAAANTLTPLEQGVSFNKKLMDRFDFGEDSEHSEEPKKEIPASQLSHVSESVNNSIFHQIAEQLQQQNLEHLRQQLLEQQQPQKATPQDSQEGTFGSEHSASPSQGSSQQHFLEPEVNLDDSIDIQQQDMDIDEGQDGVEEEVFEQEAKKVAVRSRSRTHSRSRSRSPRKRRSRSRSGSRKRKHRKRSRSRSRERKRKSSRSYSSERRAREREKERQKKGLPPIRSKTLSVCSTTLWVGQVDKKATQQDLTNLFEEFGQIESINMIPPRGCAYVCMVHRQDAFRALQKLSSGSYKIGSKVIKIAWALNKGVKTEYKQFWDVDLGVTYIPWEKVKVDDLEGFAEGGMIDQETVNTEWETVKSSEPVKETVQTTQSPTPVEKETVVTTQAEVFPPPVAMLQIPVAPAVPTVSLVPPAFPVSMPVPPPGFSPIPPPPFLRASFNPSQPPPGFMPPPVPPPVVPPPTIPPVVPTSLVQPSLSMTPETVKDVGFGSLVIPGGSVASNLATSALPAGNVFNAPTKQAEPEEKVPHLIDHQISSGENTRSVIPNDISSNAAILGGQPPNVTSNSGILGVQRPNVSSNSEILGVRPSNVSSSSGIIAAQPPNILNNSGILGIQPPSVSNSSGLLGVLPPNIPNNSGLVGVQPPNVPNTPGLLGTQPPAGPQNLPPLSIPNQRMPTMPMLDIRPGLIPQAPGPRFPLIQPGIPPQRGIPPPSVLDSALHPPPRGPFPPGDIFSQPERPFLAPGRQSVDNVTNPEKRIPLGNDNIQQEGDRDYRFPPIETRESISRPPPVDVRDVVGRPIDPREGPGRPPLDGRDHFGRPPVDIRENLVRPGIDHLGRRDHFGFNPEKPWGHRGDFDEREHRVLPVYGGPKGLHEERGRFRSGNYRFDPRSGPWNRGFGQEVHRDFDDRRRPWERQRDRDDRDFDFCREMNGNRLGRDRIQNTWVPPPHARVFDYFEGATSQRKGDNVPQVNGENTERHAQPPPIPVQNDPELYEKLTSSNEINKEKSDTVADIESEPVVESTETEGT
# partner: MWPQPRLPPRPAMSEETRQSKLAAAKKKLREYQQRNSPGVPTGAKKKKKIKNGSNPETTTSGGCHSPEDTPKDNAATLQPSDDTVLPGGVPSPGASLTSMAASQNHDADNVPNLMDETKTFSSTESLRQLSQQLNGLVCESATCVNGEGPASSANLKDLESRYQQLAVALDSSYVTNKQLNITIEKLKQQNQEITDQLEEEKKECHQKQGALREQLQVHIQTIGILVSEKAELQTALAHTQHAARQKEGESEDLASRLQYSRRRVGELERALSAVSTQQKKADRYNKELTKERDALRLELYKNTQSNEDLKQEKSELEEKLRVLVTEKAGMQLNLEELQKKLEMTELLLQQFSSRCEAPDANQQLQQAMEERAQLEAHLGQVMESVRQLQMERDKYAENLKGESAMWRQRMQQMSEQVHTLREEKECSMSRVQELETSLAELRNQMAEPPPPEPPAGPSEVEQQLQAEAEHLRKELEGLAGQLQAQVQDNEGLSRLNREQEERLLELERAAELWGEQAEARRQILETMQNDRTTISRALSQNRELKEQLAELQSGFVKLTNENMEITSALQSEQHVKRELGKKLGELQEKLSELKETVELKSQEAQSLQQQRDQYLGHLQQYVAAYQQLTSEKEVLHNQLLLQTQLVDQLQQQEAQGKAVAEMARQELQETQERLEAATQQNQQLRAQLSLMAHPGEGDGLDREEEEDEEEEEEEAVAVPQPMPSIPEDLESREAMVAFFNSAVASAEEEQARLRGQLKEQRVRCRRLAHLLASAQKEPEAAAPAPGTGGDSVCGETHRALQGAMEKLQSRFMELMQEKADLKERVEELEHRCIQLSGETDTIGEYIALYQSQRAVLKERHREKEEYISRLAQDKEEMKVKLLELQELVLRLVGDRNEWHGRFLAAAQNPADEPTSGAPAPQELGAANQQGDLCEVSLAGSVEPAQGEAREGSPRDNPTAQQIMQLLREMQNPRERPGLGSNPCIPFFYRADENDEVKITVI
# Variants of: B1
# Conditions: with wt1_human WT1, P19544
# Sequence of wt1_human WT1, P19544 (P19544 whole entry): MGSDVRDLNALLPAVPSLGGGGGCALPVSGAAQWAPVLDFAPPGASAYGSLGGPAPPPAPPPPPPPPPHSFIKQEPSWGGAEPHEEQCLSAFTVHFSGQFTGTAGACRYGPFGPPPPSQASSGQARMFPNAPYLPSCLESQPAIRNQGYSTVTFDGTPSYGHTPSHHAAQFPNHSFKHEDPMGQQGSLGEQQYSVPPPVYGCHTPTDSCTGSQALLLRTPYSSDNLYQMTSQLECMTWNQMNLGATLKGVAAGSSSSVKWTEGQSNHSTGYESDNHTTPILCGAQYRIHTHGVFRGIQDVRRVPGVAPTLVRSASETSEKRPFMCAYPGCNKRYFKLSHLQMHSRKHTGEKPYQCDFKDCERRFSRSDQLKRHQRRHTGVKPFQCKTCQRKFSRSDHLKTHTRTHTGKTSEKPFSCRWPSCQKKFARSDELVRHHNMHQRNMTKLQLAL
row,Variant,effect of a mutation on the interaction
1,T37A,with no effect
2,R235H,with no effect
3,S102N,with no effect
4,A115T,with no effect
5,T153M,with no effect

# Next, values leading:
row,effect of a mutation on the interaction,Variant
1,with no effect,S406L
2,with no effect,M303T
3,with no effect,T388M

# Variants of: B1
# Conditions: with k2c4_human KRT4, P19013
# Sequence of k2c4_human KRT4, P19013 (P19013 whole entry): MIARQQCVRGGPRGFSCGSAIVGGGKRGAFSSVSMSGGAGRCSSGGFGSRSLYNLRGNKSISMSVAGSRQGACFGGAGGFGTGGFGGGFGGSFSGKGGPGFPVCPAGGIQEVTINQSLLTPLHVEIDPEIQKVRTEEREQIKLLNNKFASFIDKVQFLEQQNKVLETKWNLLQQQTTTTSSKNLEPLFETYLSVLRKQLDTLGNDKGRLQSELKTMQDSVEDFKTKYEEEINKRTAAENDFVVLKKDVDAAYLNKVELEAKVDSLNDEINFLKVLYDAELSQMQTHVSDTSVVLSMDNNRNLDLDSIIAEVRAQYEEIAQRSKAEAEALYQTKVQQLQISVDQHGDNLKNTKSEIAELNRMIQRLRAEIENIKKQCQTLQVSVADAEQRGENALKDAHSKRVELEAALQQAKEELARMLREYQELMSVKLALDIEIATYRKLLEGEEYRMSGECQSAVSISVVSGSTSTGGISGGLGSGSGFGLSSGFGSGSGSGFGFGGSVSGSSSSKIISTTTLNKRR
row,Variant,effect of a mutation on the interaction
1,T37A,with no effect
2,R235H,with no effect
3,S102N,with no effect
4,A115T,with no effect
5,T153M,with no effect

# Other lines, results leading:
row,effect of a mutation on the interaction,Variant
1,with no effect,S406L
2,with no effect,M303T
3,with no effect,T388M

# Variants of: B1
# Conditions: with mta1_human MTA1, Q13330
# Sequence of mta1_human MTA1, Q13330 (Q13330 whole entry): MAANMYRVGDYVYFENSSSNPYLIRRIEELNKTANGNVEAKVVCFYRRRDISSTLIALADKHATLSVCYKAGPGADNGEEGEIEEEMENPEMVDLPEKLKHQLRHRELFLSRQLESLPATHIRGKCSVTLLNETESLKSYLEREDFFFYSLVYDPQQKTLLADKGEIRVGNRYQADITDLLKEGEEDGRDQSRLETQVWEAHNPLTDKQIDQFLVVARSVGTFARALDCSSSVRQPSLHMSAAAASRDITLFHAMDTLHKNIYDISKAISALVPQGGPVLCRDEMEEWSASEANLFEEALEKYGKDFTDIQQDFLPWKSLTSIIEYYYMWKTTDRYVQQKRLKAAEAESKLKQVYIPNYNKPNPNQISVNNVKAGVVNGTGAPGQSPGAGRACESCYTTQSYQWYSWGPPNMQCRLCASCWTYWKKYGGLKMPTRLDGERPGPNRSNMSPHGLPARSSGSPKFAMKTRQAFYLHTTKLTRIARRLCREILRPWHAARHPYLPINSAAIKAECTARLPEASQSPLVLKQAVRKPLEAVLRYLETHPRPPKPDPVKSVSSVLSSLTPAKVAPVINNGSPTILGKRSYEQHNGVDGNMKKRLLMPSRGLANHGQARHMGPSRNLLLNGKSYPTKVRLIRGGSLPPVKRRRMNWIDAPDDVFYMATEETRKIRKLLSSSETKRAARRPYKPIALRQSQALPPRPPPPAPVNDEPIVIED
row,Variant,effect of a mutation on the interaction
1,T37A,with no effect
2,R235H,with no effect
3,S102N,with no effect
4,A115T,with no effect
5,T153M,with no effect

# Second part, the variant after the results:
row,effect of a mutation on the interaction,Variant
1,with no effect,S406L
2,with no effect,M303T
3,with no effect,T388M

# Variants of: B1
# Conditions: with prs8_human PSMC5, P62195
# Sequence of prs8_human PSMC5, P62195 (P62195 whole entry): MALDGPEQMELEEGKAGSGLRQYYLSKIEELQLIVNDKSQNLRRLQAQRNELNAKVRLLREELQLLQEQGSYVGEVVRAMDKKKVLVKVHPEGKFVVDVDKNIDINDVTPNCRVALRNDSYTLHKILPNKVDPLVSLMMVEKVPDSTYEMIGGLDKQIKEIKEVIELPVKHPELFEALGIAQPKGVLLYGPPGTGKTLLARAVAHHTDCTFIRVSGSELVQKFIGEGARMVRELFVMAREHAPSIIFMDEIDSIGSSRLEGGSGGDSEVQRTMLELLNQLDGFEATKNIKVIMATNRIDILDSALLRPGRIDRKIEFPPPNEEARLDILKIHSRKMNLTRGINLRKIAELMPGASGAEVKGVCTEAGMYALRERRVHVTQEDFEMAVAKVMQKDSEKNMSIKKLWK
row,Variant,effect of a mutation on the interaction
1,T37A,with no effect
2,R235H,with no effect
3,S102N,with no effect
4,A115T,with no effect
5,T153M,with no effect

# Other lines, results leading:
row,effect of a mutation on the interaction,Variant
1,with no effect,S406L
2,with no effect,M303T
3,with no effect,T388M

# Variants of: B1
# Conditions: with snai1_human SNAI1, O95863
# Sequence of snai1_human SNAI1, O95863 (O95863 whole entry): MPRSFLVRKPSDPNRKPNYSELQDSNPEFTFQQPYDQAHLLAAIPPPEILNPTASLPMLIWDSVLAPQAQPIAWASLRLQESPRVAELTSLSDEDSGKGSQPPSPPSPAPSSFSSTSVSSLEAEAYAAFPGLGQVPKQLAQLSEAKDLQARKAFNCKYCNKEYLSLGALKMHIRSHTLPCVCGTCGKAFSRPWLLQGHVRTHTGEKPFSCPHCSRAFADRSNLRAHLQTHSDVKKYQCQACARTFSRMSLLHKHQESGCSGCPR
row,Variant,effect of a mutation on the interaction
1,T37A,with no effect
2,R235H,with no effect
3,S102N,with no effect
4,A115T,with no effect
5,T153M,with no effect

# Results, then the variant that gave them:
row,effect of a mutation on the interaction,Variant
1,with no effect,S406L
2,with no effect,M303T
3,with no effect,T388M

# Variants of: B2
# Conditions: with plod3_human PLOD3, O60568
# Sequence of plod3_human PLOD3, O60568 (O60568 whole entry): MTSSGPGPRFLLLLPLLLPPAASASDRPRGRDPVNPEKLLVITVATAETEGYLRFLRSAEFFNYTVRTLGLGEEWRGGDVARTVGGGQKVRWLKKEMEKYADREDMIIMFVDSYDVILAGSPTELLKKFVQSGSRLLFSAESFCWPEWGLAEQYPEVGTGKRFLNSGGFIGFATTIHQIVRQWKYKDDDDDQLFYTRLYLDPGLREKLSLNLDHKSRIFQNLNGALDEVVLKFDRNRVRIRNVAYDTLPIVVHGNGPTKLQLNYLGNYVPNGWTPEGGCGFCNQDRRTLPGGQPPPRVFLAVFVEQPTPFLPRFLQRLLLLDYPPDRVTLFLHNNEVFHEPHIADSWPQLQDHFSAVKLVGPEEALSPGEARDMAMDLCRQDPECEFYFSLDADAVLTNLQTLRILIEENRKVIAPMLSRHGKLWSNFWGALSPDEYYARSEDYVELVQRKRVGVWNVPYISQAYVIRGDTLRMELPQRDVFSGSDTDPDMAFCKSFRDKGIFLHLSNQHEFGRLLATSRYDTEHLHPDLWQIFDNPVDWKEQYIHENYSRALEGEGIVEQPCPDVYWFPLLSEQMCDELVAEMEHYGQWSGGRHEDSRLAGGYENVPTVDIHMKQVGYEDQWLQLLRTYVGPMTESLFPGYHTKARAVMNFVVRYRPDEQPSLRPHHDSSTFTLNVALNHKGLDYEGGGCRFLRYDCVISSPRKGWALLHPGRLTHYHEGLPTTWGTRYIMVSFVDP
row,effect of a mutation on the interaction,Variant
1,disrupting interaction strength,E507Q
2,disrupting interaction strength,N31S

# Variants of: B2
# Conditions: with ercc3_human ERCC3, P19447
# Sequence of ercc3_human ERCC3, P19447 (P19447 whole entry): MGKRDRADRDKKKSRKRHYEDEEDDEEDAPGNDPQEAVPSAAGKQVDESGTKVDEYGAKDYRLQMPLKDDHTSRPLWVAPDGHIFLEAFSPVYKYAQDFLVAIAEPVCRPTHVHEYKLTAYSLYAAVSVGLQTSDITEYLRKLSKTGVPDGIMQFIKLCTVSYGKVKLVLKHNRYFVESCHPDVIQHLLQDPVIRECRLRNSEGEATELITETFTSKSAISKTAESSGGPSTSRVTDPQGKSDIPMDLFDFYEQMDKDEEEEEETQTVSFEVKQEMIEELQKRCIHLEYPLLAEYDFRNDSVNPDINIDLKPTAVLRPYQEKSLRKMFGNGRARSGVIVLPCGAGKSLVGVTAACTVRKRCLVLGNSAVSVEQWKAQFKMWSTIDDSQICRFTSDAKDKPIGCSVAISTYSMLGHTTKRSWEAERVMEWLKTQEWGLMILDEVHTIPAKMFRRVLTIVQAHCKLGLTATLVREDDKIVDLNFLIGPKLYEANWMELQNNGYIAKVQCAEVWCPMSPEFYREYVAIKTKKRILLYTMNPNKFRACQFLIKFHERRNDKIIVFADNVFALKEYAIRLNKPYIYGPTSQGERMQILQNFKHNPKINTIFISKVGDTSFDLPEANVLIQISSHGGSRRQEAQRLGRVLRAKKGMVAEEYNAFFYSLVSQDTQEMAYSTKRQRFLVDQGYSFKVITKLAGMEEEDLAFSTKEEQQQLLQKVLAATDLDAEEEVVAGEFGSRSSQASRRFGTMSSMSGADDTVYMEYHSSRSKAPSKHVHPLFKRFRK
row,effect of a mutation on the interaction,Variant
1,with no effect,V376I

# Variants of: B2
# Conditions: with ptk6_human PTK6, Q13882
row,effect of a mutation on the interaction,Variant
1,with no effect,V376I

# Variants of: B2
# Conditions: with mk09_human MAPK9, P45984
row,effect of a mutation on the interaction,Variant
1,with no effect,V376I

# Variants of: B2
# Conditions: with plod3_human PLOD3, O60568
# Remark: another data set of the same source
row,effect of a mutation on the interaction,Variant
1,with no effect,V376I

# Variants of: B2
# Conditions: with ptk6_human PTK6, Q13882
# Remark: another data set of the same source
row,effect of a mutation on the interaction,Variant
1,disrupting interaction strength,N31S

# Variants of: B2
# Conditions: with ercc3_human ERCC3, P19447
# Remark: another data set of the same source
row,effect of a mutation on the interaction,Variant
1,disrupting interaction strength,N31S

# Variants of: B2
# Conditions: with mk09_human MAPK9, P45984
# Remark: another data set of the same source
row,effect of a mutation on the interaction,Variant
1,disrupting interaction strength,N31S

# Variants of: B3
# Conditions: with imp3_human IMP3, Q9NV31
row,effect of a mutation on the interaction,Variant
1,with no effect,R8Q
2,with no effect,S688L

# Variants of: B4
# Conditions: with zn446_human ZNF446, Q9NWS9
# Sequence of zn446_human ZNF446, Q9NWS9 (Q9NWS9 whole entry): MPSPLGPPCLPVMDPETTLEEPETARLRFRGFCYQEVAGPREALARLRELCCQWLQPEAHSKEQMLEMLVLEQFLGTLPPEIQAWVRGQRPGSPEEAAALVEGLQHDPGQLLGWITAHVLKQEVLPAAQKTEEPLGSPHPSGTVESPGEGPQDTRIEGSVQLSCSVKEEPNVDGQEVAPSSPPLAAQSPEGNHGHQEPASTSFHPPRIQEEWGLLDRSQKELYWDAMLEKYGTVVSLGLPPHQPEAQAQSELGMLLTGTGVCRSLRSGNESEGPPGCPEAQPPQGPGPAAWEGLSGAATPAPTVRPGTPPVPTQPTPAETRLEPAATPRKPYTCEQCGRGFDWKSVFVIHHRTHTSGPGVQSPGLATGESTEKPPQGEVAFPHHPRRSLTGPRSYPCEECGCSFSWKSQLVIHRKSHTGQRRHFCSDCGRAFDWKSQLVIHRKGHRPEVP
row,effect of a mutation on the interaction,Variant
1,with no effect,Q34R

# Variants of: B5
# Conditions: with goga2_human GOLGA2, Q08379
row,effect of a mutation on the interaction,Variant
1,with no effect,M1173V
